B1: OR4K15 (parent)
chain: GUUAACGGUCAUAGGCCAUGGAAACUAGGAGCACCAUUUCGCUGCCAGUGAAGAAAUGAACAAAGAAAAUCUGGGCCAGGCAGGCAUCAAAAGAAAUAGUCUUGCGCUCAACCAGAAAGUCUGUAAUCAUUUUAAGGGUA

Variants of B1 are the subject of this series. The series can be described thus: self-cleavage, relative activity (ratio to wild type); higher = more cleavage; in vitro, sequencing; the parent is a self-cleaving ribozyme.
Consider C46U A129G, for which the self-cleavage amounted to 1.52.
As for U43C A56G, the self-cleavage worked out at 1.18.
Under A47G G74A stands 0.21; under A47G G115U, 0.09; under U43C A98G, 0.44.
Under A47G A118G stands 0.41.
On to C46U U130C, for which the self-cleavage amounted to 1.4.
The same measure for U43C U102C: 2.15; for U43C U102A: 1.
On to A47C G74A, for which the self-cleavage was 0.17.
Under A47C G74U stands 0.15; under A47U A59U, 0.57.
Under A47C U70C stands 0.23; under A47U U70G, 1.16.
Turning to A47U U70C, the self-cleavage amounted to 0.13.
The same measure for A47C U87C: 1.76; for U43C U108C: 0.02.
The same measure for U43C U108A: 0.02; for C46U G138A: 1.91.
Under A47U U72A stands 0.13.
For the variant A47G A78U, the self-cleavage turned out to be 0.14.
Under A47G A78G stands 0.26; under C45A U131A, 1.29; under G48A U120C, 1.38.
Under U43C A89C stands 1.36; under A47U U139G, 1.4; under U43C A66G, 1.29.
The same measure for U43C U131C: 1.36; for U43G A125G: 1.11.
For C46U, the self-cleavage stood at 1.54.
Under C46A stands 1.44; under C46G, 1.46.
The same measure for C45G A116G: 0.77; for C45U U103C: 0.54.
On to C45U A86U, for which the self-cleavage was found to be 1.17.
The same measure for A47U U87C: 1.34.
Regarding U43C U103G, the self-cleavage amounted to 0.01.
Under G44U A66U stands 2.02; under C46U A86G, 1.41; under U43C U120C, 0.46.
The same measure for A47U U120A: 1.19; for U43G: 1.7; for U43C: 1.29.
For the variant G44A U102C, the self-cleavage worked out at 2.14.
Under G44A U102A stands 1.56; under U43C A111G, 0.02; under A47G A94G, 0.82.
The same measure for U43G U49C: 2.01.
Under A47U A67G stands 1.23; under C45U A51G, 1.58; under C45A G99A, 0.92.
Consider A47G A92G, for which the self-cleavage was found to be 1.02.
Under C46U U72C stands 0.21; under U43C G138A, 2.16.
Under U43G A134G stands 0.89.
The same measure for A47U A98U: 1.79; for G48U U102C: 1.31.
In the case of G48A U133C, the self-cleavage worked out at 2.78.
The same measure for G44A A64G: 1.36.
The same measure for A47C C105U: 0.32; for A47U A118G: 0.76; for G44C C46A: 1.19.
Under U43C A59U stands 1.48; under U43C A59C, 0.12.
Regarding A47U G106U, the self-cleavage was 0.01.
The same measure for A47U G106A: 0.01.
Under A47G U100G stands 2.14; under U43C A140G, 1.95.
The same measure for A47G U130C: 0.33; for A47G U132C: 0.47.
As to C45U A126G, the self-cleavage amounted to 0.97.
Under G48C A92U stands 1.18; under G44C A82U, 0.27; under U43G A54C, 1.71.
Under G44A A110G stands 0.14; under U43C A91U, 1.88; under A47G A66U, 1.11.
The same measure for A47G A66G: 0.23.
In the case of U43G A111G, the self-cleavage was 0.03.
The same measure for G44A U124C: 0.45.
Consider G44A U124A, for which the self-cleavage came out at 1.15.
The same measure for A47G A82U: 0.07.
For the variant A47G A82G, the self-cleavage was found to be 0.51.
With G48A U124A, the self-cleavage was found to be 0.41.
The same measure for G44A A63C: 2.07; for G44A A63G: 0.71.
The same measure for C46U A67U: 2.2; for A47G G58A: 0.52; for A47G G58C: 0.97.
In the case of A47U U100C, the self-cleavage was found to be 2.2.
The same measure for G44C A78G: 0.52; for C45G A51G: 1.57.
Consider A47G A111G, for which the self-cleavage came out at 0.02.
The same measure for U43C G79U: 0.12.
A47G A89U: the self-cleavage worked out at 0.42.
The same measure for A47G C85U: 0.65; for G44A C77U: 2.17; for G44A A134U: 0.73.
As to A47G U127C, the self-cleavage worked out at 0.59.
The same measure for A47G U127A: 1.33; for U49A A69U: 1.92.
Under A47U A55G stands 0.6; under A47U U103G, 0.03; under A47G A91G, 0.69.
The same measure for G44A A54G: 1.57; for G44A G83A: 1.24; for C46U A114G: 0.49.
As for C45U A129G, the self-cleavage came out at 1.16.
Consider U43C A125U, for which the self-cleavage stood at 1.56.
Turning to U43C A125G, the self-cleavage came to 0.53.
Under A47U A116C stands 0.05; under A47C A116G, 1.3.
Take C46U C85U: the self-cleavage amounted to 1.36.
The same measure for U43C U57G: 0.87; for A47G A67G: 1.12.
For the variant C46A U97A, the self-cleavage worked out at 1.43.
Under U43C G136A stands 1.75; under A47G A125U, 1.01.
Regarding A47G A125G, the self-cleavage is 0.28.
The same measure for G48A A82U: 0.12; for G44U A52U: 0; for U49A A56G: 1.74.
The same measure for U49A: 1.05; for A47C A92U: 0.74.
Under G48A A64U stands 1.63.
For U43C A114U, the self-cleavage stood at 0.05.
For the variant U43C A114C, the self-cleavage was 0.03.
The same measure for A47G A114G: 0.24.
Under A47G A134G stands 0.84; under U43C A78U, 0.4; under U49A A67G, 1.13.
Under U43C U132A stands 1.82; under C45U A56C, 0.67.
Turning to G48U A56G, the self-cleavage was 1.4.
The same measure for C46U A62U: 1.83; for U43C G93A: 2.44.
The same measure for A47U U132C: 1.02.
Under A47U U132A stands 0.51; under A47U U49A, 0.97; under A47U U49C, 0.36.
Regarding A47U G99A, the self-cleavage amounted to 0.23.
Consider A47G U108C, for which the self-cleavage came to 0.01.
The same measure for G48A A51G: 2.22; for G44A A47G: 1.27.
Under G44U A59G stands 1.67.
On to A47U U124C, for which the self-cleavage was determined as 0.5.
Under A47U A62U stands 1.36; under C45G U102C, 1.48.
The same measure for G44C: 1.33.
Under G44U stands 1.91; under G44A, 1.53.
Regarding A47G A54U, the self-cleavage is 0.97.
The same measure for A47G A54G: 1.22; for U43C A116U: 0.46; for U43C A116G: 0.53.
The same measure for A47U A95G: 1.25; for C46U A89G: 2.15; for U43C A69G: 0.94.
Under A47U U97A stands 1.74; under G44A G84U, 0.93.
In the case of U43C G123A, the self-cleavage worked out at 2.35.
The same measure for A47G A60G: 0.74; for C46U A117G: 2.01; for G44A U122C: 1.67.
As to U43C U49C, the self-cleavage amounted to 1.22.
Under C45U A68C stands 1.95; under C45A A134G, 1.72.

Source of the values: the RNAGym collection of RNA variant scans (doi:10.7554/elife.90254).
